Results taken from the DeepSol protein solubility set.

Test: soluble on expression in E. coli; label from the status in PepcDB or PDB records

Sequence | soluble on expression in E. coli
MAELDEAALLGDGNEQHDGPIDENALLDGKELKEEDIDDLYDEAIAPTNSTESAKPVSPTITTVTAPTAGIGAKPATSSEGRKYCCYVGNLLWYTTDADLLKALQSTGLARSQFADMKFFENRTNGQSKGYALLVLNSDAAVKQTMEILPTKTIHGQSPTVLSYNKTNQAKLEDAQAKNQTRPDVKKKGFEEGCVNMGTIRIGAGGQTGRTGTSVSGRSGPPPLMMQQVRPTPLMSQPTSLPSNLNQAPQMRLQINGQQVPLMNRAPVPQQTMLGNGPLGGMNQQIQQQPQMMMGQQVRPMMQTSMGIQPMMGMNAPPPMNNQFQNRPPQLGSMGVQPLMQMNTAMRPPINGLPPVHVNPQMFPGLQGTVLSDAEFEDVMTRNQTVSSSAIARAITDASVGDIKGASETILTAIQLIKNSRIGHDERCRQLVYGLEHTLKGLESKGYSSRSKSHRDRSRSRERDRKRRRRSRTRSRSYSRSPSPRRRRY | soluble
MGHHHHHHSHEELGLKVGLEIHRQLDTKKLFSPVPTKFSDEVDFTFQRRLRPTMSELGEVDPAALEEFKKGRVFIYEGNYQLTDLVYMDEEPPRGPDKEALEVALQIAYLLNAKPVDEVYYMRKIVIDGSNVSGFQRTAIIATDGKVETPWGTVGIPTICLEEDAARIIERKEKEVIYRLDRLGVPLVEISTTPDIHHPEQAKVVAKFIGDALRATRKVKRGLGTIRQDLNVSIKGGARIEIKGVQELDMIPLIIEREVERQLNLLKIR | not soluble
MPLNHYQQEVGPSLADTSPGKMPDVALLEGRYCSVEHLTVAEHYEDILDFYFTNQILSDWTYMYADPFESEEAVRQCLEDYEQSQNPYFFAIRDKASGKVLGTFSLMAITPKNRSVEMGRVILAPALQKTRAATEAQYLLMKYVFEDLNYRRYEWKCDKSQPPFCQCSHSFRVHL | not soluble
AELVSDKALESAPTVGWASQNGFTTGGAAATSDNIYIVTNISEFTSALSAGAEAKIIQIKGTIDISGGTPYTDFADQKARSQINIPANTTVIGLGTDAKFINGSLIIDGTDGTNNVIIRNVYIQTPIDVEPHYEKGDGWNAEWDAMNITNGAHHVWIDHVTISDGNFTDDMYTTKDGETYVQHDGALDIKRGSDYVTISNSLIDQHDKTMLIGHSDSNGSQDKGKLHVTLFNNVFNRVTERAPRVRYGSIHSFNNVFKGDAKDPVYRYQYSFGIGTSGSVLSEGNSFTIANLSASKACKVVKKFNGSIFSDNGSVLNGSAVDLSGCGFSAYTSKIPYIYDVQPMTTELAQSITDNAGSGKL | soluble
LKSLRCFWNVRFITLSMLPRYTAQMLRRFIPPMLSLWLLFASLAQANGTVDKIQIKGLDKGDDVEMMKNITVSLSLYSVVGKEQGEFRLEYLLSQAEFQTRQALEPFGYYAPTIRIDAPRQNDHITVVIYVDKGEPVRVRQAHVAMTGAAAQDHYLQRDLEDFKPKLGEIFNHPTYEASKVRITRRLAERGYFDADFTHRRVEVTRAAHAADIDLIWESGRRYDMGPVRFHYDYFHEGLFNPLVYWDEGSYFHEGKLDRLRESLTKLDYFSSIDIQPKPEEADPEGNVPVDVKLERAKSKIYTAGISYGSESGAGLRAGVERRYMNARGHKMNARLDYAQNLKSLTTAYQIPAFKWLDGWYIFFARAYDEQTKYIDLRNVKLSAARSGQINRHLTATASLNALRGRWRYRADDGTNTVAYQQSTLVYPQLEASYVDVDDATFPRNGSAATVLLRGGASALGSKSNFTQLHGQLRWFHGLGASSRLILRGEAGTTWASDLVAMPPSLRFFAGGVNSIRGYAFREVGPRTAKPDAFALGAKHVFSAGAEFEYYYKGGPFGGAVFVDSGSAFNRYPDWHTGVGIGLRYRSPVGPVRVDIARGLNSPDSKIQLYIDIGANL | soluble
MKLIFILSIIFLSSLSVAQSPISCAFCMAGLAQINQQVISSPDMEAQMGIQASQGCDQIPVKQTRETCRGSLNTNFNIFYSNFTGQANNSPTQMCINMGMC | not soluble
MGSDKIHHHHHHVYTSFYGFKAKPFQLSPDPSFFFGSKGHNRAMAYLEYGLAQAEGFIVVTGEVGAGKTTLVRNLFRQLEPEKIVAAQIVNTSLDSDDTLRMVAAAFGLPLAQGNPGKTPVLVALEKFFRQCEQQGKRALLVVDEAQNLSPQTVEELRMLSNFQGDNKSLLQTFLLGQPEFRKTLLGNDMQQLRQRITATYHLGPMDRAETKSYIEHRLKTVGWGGNPGFDEEAFDAIHQYTGGIPRRINALCDRLLLMGYLEKLQHFGVSEVNEVIRDIQQEFDAVEVEAGLLSGDKTSPLKEEQFAIGLEEMSNRIAKLEETVVSLMGLLKQILSLADVNKRLR | not soluble
AIRVADLLQHITQMKCAEGYGFKEEYESFFEGQSAPWDSAKKDENRMKNRYGNIIAYDHSRVRLQTIEGDTNSDYINGNYIDGYHRPNHYIATQGPMQETIYDFWRMVWHENTASIIMVTNLVEVGRVKCCKYWPDDTEIYKDIKVTLIETELLAEYVIRTFAVEKRGVHEIREIRQFHFTGWPDHGVPYHATGLLGFVRQVKSKSPPSAGPLVVHCSAGAGRTGCFIVIDIMLDMAEREGVVDIYNCVRELRSRRVNMVQTEEQYVFIHDAILEACL | soluble
MKMYEVKEFSSGKRKLEDYKSIIGEEEVSKIQEKAEKLKGRSFVHVNSTSFGGGVAEILHSLVPLLRSIGIEARWFVIEGPTEFFNVTKTFHNALQGNESLKLTEEMKELYLNVNRENSKFIDLSSFDYVLVHDPQPAALIEFYEKKSPWLWRCHIDLSSPNREFWEFLRRFVEKYDRYIFHLPEYVQPELDRNKAVIMPPSIDPLSEKNVELKQTEILRILERFDVDPEKPIITQVSRFDPWKGIFDVIEIYRKVKEKIPGVQLLLVGVMAHDDPEGWIYFEKTLRKIGEDYDVKVLTNLIGVHAREVNAFQRASDVILQMSIREGFGLTVTEAMWKGKPVIGRAVGGIKFQIVDGETGFLVRDANEAVEKVLYLLKHPEVSKEMGAKAKERVRKNFIITKHMERYLDILNSLGGLEHHHHHH | soluble
MERISLSFVGDVMLAGSATDTLQRYGYSYPFSATAAELRRSDLVVGNLEAPLTDGGREFRAKRFRFKASPVAAAALKRAGFSVMTLANNHMMDFGADGLSDTIHHLNRNGIAFAGAGPSIADARREASVTVRGQTVAFLAYSLTQPIEFFATEGRPGTAPGYAGHYLADIRRVRSSADHVVVSFHWGQERAALPSPYQIETAHRAIDAGADIVIGHHPHVLQGIEIYRGSPIFYSLGNFAFGSRSPSADRSIIARVTLGEGPPIVEVIPLNVLFREVRFQPAILTGRKAADVVDRLNRLSAPFSTVITSTAGSHLVAPAEANARLARRQLEHHHHHH | not soluble
GSGMKETAAAKFERQHMDSPDLGTTLLEQYCHRTTIGNFSGPYTYCNTTLDQIGTCWPQSAPGALVERPCPEYFNGIKYNTTRNAYRECLENGTWASRVNYSHCEPILDDFQRKYDLHY | soluble
MEQYYGTGRRKEAVARVFLRPGNGKVTVNGQDFNEYFQGLVRAVAALEPLRAVDALGHFDAYITVRGGGKSGQIDAIKLGIARALVQYNPDYRAKLKPLGFLTRDARVVERKKYGKHKARRAPQYSKR | soluble
MFDDQDEIHPLLAGAPQTTEFRKLRKRIVREVREAIETYGMVERGARWLVCLSGGKDSYTLLAVLHELKWRGLLPVDLLACNLDQGQPGFPATVLPEFLSRMGVPHRIEYQDTYSIVMDKIPQGRTYCALCSRLRRGNLYRIAREEGCSAVVLGHHRDDILETFFMNLFHGGRLATMPPKLVNEDGDLFVYRPLAFVAEADCEKFARDMAYPIIPCDLCGSQEGLQRQQVKQILDGWEARSPGRRQVMFRALMNARPSHLLDPGLFDFLGLATAPRASEERQDEPPHLRGEA | not soluble
MSLTDVLTATYELYLAEGESPEGKARGIALEQTVEMPADCLPGDIAERMVGRIRTLEPRADHWVLEIDYPLAAIGGELTQCLNLLFGNISLQSGIRLVQVAWPPSLLRRWGGPGLGVSGLRARLDVGARPLLCAALKPMGLSAPALAARCAAFARGGVDLIKDDHGLADQPDAPFAERLNACQDAVRQANRRSGGRSLYLPNVTAAPQALGERLAAARDAGCEMVLISPWLTGLETLRWARDEYGLALMAHPAMTGGLFLPRHGISPALLLGELFRIAGADAVIYPNVGGRFRFSADTCQAINHALRRPLEGLASAWPTPGGGVDVKRAGHWKQAYGPDTILLIGGSLYAQGDIEAASRALMQAIRDEGHHHHHH | soluble
MHTNMWVVDNVVERKKYYPQLQEAAKLLRENEAIAFPTETVYGLGANAMNDEAIAKIFEAKGRPSDNPLIVHIGTKSQLDGIVKEIPPVAEKLMEHFWPGPLTIILPRKEGISEKVTAGLHTVGVRMPDHPVALALIEEANVPVAAPSANRSGRPSPTLASHVYEDLNEKIAGIVDGGATGVGVESTVIDCTSAVPTILRPGGITKEQLEAVIGTVSLDPALKDEKEKPKSPGMKYTHYAPKAPLSIVEGSREFIQRLVDEKKEEGFKVGVLTTEEYHHIYNADVVLSCGVRSDLASVATKLYDVLRTFDASEVDVIFSESFPNEGIGNAIMNRLTKAAGHHIITE | not soluble
MPAKDVQICPIAVDTTVFRSRTWDRLKFEIEYGLQRGTTANSYLISADKIALFDPPGESFTDNFVGTLIQRLDLNSLDYVILGHVNANRAHTLKLLLSLAPQATIICSNPAAQNLEKLLADAEVNNPIQVMKGNDHLDLGRGHELTFIPTPSPRYPGQLCTYDPRTEILFTDKLFGAHVCGDQVFDEGWTIYQEDRRYYFDCLLAPAAAQVSAALNKLEAYPAQTYAPSHGPLVRYGLRELTRNYQQWLSEQQAQALEHHHHHH | not soluble
MTEKALDSKQTGYCLSTDHYRIRRALPSDYDSILALWEDARHTMLASDNPQWQGAYPGETEAQEDIARGEAFLLDIAGTPLGVMAVNDQMPAEYGSLPWQTEGKAYTIHRLGVHSSLLRKGYAAAMLFSAETIAREQGGTCIRIDTYSPNTAAQSLFRRLGYRQVCSFHMKQKPLPYIAFEKSLLKQLGSG | not soluble
MSHHHAPVDFEKEASILRNHFNNAEIDLLLLIKKHVMYGAKNPTKWKFIQQSRLIRFKRELKAHISLFKDETRNKIDKLTYRVYLDCVNEYEDEMEARYQTKKEVDIQNDDYLSESDALIQISEDMANYWQKIAPSKYKQVVKETKDSNGVLKYAIATSLINVLGDGIRNVIDQSGRKYRPGAYMEMASRGAFFNVGLNAMKRVLGRYEHELVQVSAHVRSCPRCAPWQGEVLSVNYESNEYKTLQEAENDGLFHPNCHHFLYSYFEGDETDEPIPYDEEEYEAQSKQRYYERGIRDWKTKDILAEGPSKQYTAGKVKQWEEALQEHLNNN | not soluble
MGSDKIHHHHHHMIVKAKFVKGFIRDVHPYGCRREVLNQIDYCKKAIGFRGPKKVLIVGASSGFGLATRISVAFGGPEAHTIGVSYETGATDRRIGTAGWYNNIFFKEFAKKKGLVAKNFIEDAFSNETKDKVIKYIKDEFGKIDLFVYSLAAPRRKDYKTGNVYTSRIKTILGDFEGPTIDVERDEITLKKVSSASIEEIEETRKVMGGEDWQEWCEELLYEDCFSDKATTIAYSYIGSPRTYKIYREGTIGIAKKDLEDKAKLINEKLNRVIGGRAFVSVNKALVTKASAYIPTFPLYAAILYKVMKEKNIHENCIMQIERMFSEKIYSNEKIQFDDKGRLRMDDLELRKDVQDEVDRIWSNITPENFKELSDYKGYKKEFMNLNGFDLDGVDYSKDLDIELLRKLEP | not soluble
MPGELDTFKEAVKIIIEKEFPELLSPARHMMRAIVIDARQSDCDLQVLAADGSPHPSFPPLANVLVPVRKSVQIGQKVRIGFYYGDPAMPYIDEVLSNGEA | not soluble
MGSDKIHHHHHHLRLFGTKDEQLFMLFSESARVVVRGGDILQNVVNDYSDLDIKMAKLTAMEHEGDRIIQELIRRLNTSFILPFDREDAFQLAQKLSTTLDYITGIIDRMILYKTGRPNKRVKEMVNVLCEALFLQERALNLLQSLEHNKREILECCEEIRQLERKQDNHYRQGLALLFENEEEPIVIIKWREVYEHIEMAQDYVQDVAELISNICVKYS | not soluble
